Earlier results on one substance are cited in paper PMC2945288.

pKd: −log10 of the molar value.

By pKd is commonly meant the negative decadic logarithm of the Kd, by convention in mol/L.

This data set addresses coat protein (procapsid) (Salmonella phage P22) (UniProt P26747).
UniProt P26747, sequence (P26747 2-430): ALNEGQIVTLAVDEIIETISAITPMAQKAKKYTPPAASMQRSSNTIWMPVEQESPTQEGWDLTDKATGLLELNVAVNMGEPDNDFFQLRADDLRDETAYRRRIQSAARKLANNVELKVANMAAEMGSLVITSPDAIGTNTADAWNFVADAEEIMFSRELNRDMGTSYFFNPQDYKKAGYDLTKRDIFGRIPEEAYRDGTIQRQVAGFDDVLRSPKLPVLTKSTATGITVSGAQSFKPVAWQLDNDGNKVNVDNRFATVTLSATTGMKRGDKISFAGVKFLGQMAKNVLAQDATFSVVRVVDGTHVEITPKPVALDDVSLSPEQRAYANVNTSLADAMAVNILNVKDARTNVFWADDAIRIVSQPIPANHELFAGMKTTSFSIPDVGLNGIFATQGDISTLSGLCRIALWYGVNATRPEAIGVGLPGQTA

Regarding “scaffolding protein (loosely bound) (from UniProt P26748)”, the pKd is 4.55.
